In US6187552A, “Method for identifying inhibitors of JAK2/cytokine receptor binding” (Pharmacia & Upjohn Company, priority 1998, dated 2001):
Blank lines part the entries; values can stand above or below the compound they belong to.

What was measured:
[1] = biological target: NJAK2 (N-terminal portion of JAK2) (Homo sapiens, UniProt O60674); assay: SPA: binding of 3H-NJAK2 (N-terminal JAK2) to βc peptides on streptavidin-coated beads; settings: less than saturating peptide, 40 pmole per reaction, FIG. 12B
Method: (§1) Three different labeling reactions were done using ^3 H-N-succinimidyl propionate (^3 H-NSP, Amersham Life Sciences, Arlington Heights, Ill.). One reaction was done using 0.5 mg of purified JAK2 in 0.1 M borate buffer, pH 8.5, with a reaction volume of 150 μl and an incubation time of one hour on ice with dried 1 mCi of ^3 H-NSP (toluene was removed using a stream of nitrogen). […] Another reaction was done using the buffer 0.1 M sodium phosphate, pH 8.0, and a similar volume as before. One milligram of JAK2 in 1.2 ml of phosphate buffer was incubated for three hours on ice. […] A third reaction was done using 2.5 mg of purified JAK2 in 0.1 m sodium phosphate, pH 8.0, and 2.5 ml volume. It was incubated with 5 mCi of dried ^3 H-NSP on ice for 2 hours. […] All three products were separated from unincorporated label using PD-10 columns (Pharmacia Biotech, Uppsala, Sweden) pre-equilibrated with 20 mM Tris, pH 8.0, 0.15 M NaCl.
(§2) Triplicate reactions were done for each data point. The buffer used in all the assays was 35 mM sodium phosphate, 150 mM NaCl, pH 8.0, 10% glycerol. Biotinylated peptides were allowed to bind to streptavidin-coated SPA beads (Amersham Life Sciences, Arlington Heights, Ill., catalog # RPNQ0006) with either less than saturating peptide or excess peptide. […] Under less than saturating conditions, beads and 40 pmole peptide were added to the assay plate well and incubated for one hour with gentle shaking on a Titer plate shaker (Lab-Line Instruments, Inc., Melrose Park, Ill.) at 600 rpm and not washed. […] The plates were then read on a MicroBeta (Wallac) set to read scintillation due to tritium.
(§3) Either ^3 H-JAK2 or ^3 H-NJAK2 was added to the wells and, after incubation, the signals measured. […] A competition reaction was also done by adding 5 to 10-fold excess unlabeled JAK2 in those reactions.

JAK2 [2] = biological target: T1, JAK2 (Homo sapiens, UniProt O60674); assay: ELISA binding of JAK2 to immobilized βc peptides; set-up: Y918N clone error corrected to Tyr; settings: for binding of JAK2 (ELISA): biotinylated peptides on streptavidin plate; for binding of JAK2 (ELISA) / saturation of JAK2 binding at 0.4 μM peptide (ELISA): FIG. 24
Method: βc peptides corresponding to the proposed JAK2 binding domain (Table 1) were serially diluted and bound 16 hours at room temperature to streptavidin coated 96-well plates (Boehringer-Mannheim, Indianapolis, Ind.) and blocked at 37° with 1% fetal bovine serum in PBS. JAK2 protein was serially diluted on the plate and allowed to bind for 1 hour at room temperature. Plates were washed between incubations with ELISA wash (PBS with 0.04% TWEEN 20). Detection was via anti-FLAG antibody (10 μg/ml, Kodak, New Haven, Conn.) followed by anti-mouse Ig conjugated to peroxidase (1:5000 dilution, Boehringer Mannheim) and 1 mg/ml 2,2'-azinobis(3-ethylbenzthiazolinesulfonic acid) (Sigma), 0.003% H2 O2, 28 mM citric acid, 44 mM Na2 HPO4.
The ELISA assay worked best when the biotinylated βc peptides were immobilized on a streptavidin 96-well plate and the JAK2 was allowed to bind. A dual titration of βc peptides vs. JAK2 was performed (FIG. 24). Peptide 1 [SEQ ID NO:11] (FIG. 24 A) and peptide 2 [SEQ ID NO:12] […] Because 0.4 μM peptide was calculated to saturate the number of biotin binding sites in each well, it was expected that the amount of JAK2 binding should saturate at this quantity of peptide. […] (FIGS. 24 C and D) but peptides 5 and 6 [SEQ ID NOS:15 and 16]

JAK2 [3] = biological target: T1, JAK2; assay: SPA: binding of 3H-JAK2 to βc peptides on streptavidin-coated beads; set-up: NJAK2 = N-terminal 294 residues; settings: for activity profile in binding 3H-JAK2 (signal): less than saturating peptide, 40 pmole per reaction, FIG. 12A; for overall signals and signal-to-noise ratios, peptide and labeled JAK2 mixed prior to adding beads / activity profile, peptide and labeled JAK2 mixed prior to adding beads: mixed one hour before beads, FIG. 13; for overall signals and signal-to-noise ratios, peptide and labeled JAK2 mixed prior to adding beads: versus peptide bound to bead first; for signal: κ-casein included throughout the assay; for activity of C-terminal deletion peptide in the SPA: excess peptide, κ-casein 1 mg/ml
Method: Cells were lysed by dounce homogenization (20 strokes) in 1X phosphate buffered saline (PBS), pH 7.5 at 4 C. […] For some experiments, the JAK2 protein (0.15 mg/ml), aliquoted into 7 equivalent tubes, was then subjected to ultracentrifugation in an Airfuge using an A-110 rotor at an average of 164,000×g for a period of 6 hours at ambient temperature. At zero time, and at each subsequent hour thereafter, a tube of JAK2 was removed for analyses (ELISA, SDS polyacrylamide gel electrophoresis, and Western blotting).
as §1, §2, §3

βc/JAK2 binding = assay: Effect of blocking agents, detergents and DTT on the SPA (signal, background); set-up: species or system human
Method: as §2

JAK2 [4] = biological target: T1, JAK2; assay: SPA competition: soluble peptide/streptavidin against peptide 4-coated SPA beads for binding 3H-JAK2; set-up: Y918N clone error corrected to Tyr
Excerpt: FIGS. 20 A and B illustrate a test of the ability of streptavidin-peptide 4 complexes to compete for binding of 3H-JAK2 to peptide 4-coated SPA beads. For A, #0 is a beads only control. In all reactions with peptide bound to beads, excess peptide 4 [SEQ ID NO:14] was bound to beads before adding soluble samples. The reaction in #1 is peptide 4 [SEQ ID NO:14] bound to beads only, no added peptide 4 [SEQ ID NO:14] or streptavidin. #2 contained soluble peptide 4/streptavidin at a ratio of 1:1. #3 contained soluble peptide 4/streptavidin at a ratio of 4:1. #4 contained 20 μM peptide 4 added as soluble peptide 4. #5 contained 20 μM streptavidin. […] For B, 0 is a beads only control. In all reactions with peptide bound to beads, excess peptide 4 was bound to beads in the presence of 1 mg/ml κ-casein (as described in Materials and Methods of Example 8) before adding soluble samples. The reaction in #1 is peptide 4 bound to beads only, no added peptide 4 or streptavidin. #2 contained peptide 1/streptavidin at a ratio of 4:1 and #3 contained peptide 4/streptavidin at a ratio of 4:1.
The assay was set up in 96-well plates (Wallac, catalog # 1450-401), Turku, Finland, using a total assay volume of 200, μl/well. Triplicate reactions were done for each data point. The buffer used in all the assays was 35 mM sodium phosphate, 150 mM NaCl, pH 8.0, 10% glycerol. Biotinylated peptides were allowed to bind to streptavidin-coated SPA beads (Amersham Life Sciences, Arlington Heights, Ill., catalog # RPNQ0006) with either less than saturating peptide or excess peptide. For 400 μg SPA beads used per reaction, there was the capacity to bind 49 pmole of biotin (given the binding capacity of 121 pmole biotin/mg bead). Under less than saturating conditions, beads and 40 pmole peptide were added to the assay plate well and incubated for one hour with gentle shaking on a Titer plate shaker (Lab-Line Instruments, Inc., Melrose Park, Ill.) at 600 rpm and not washed. Under conditions of excess peptide, beads and peptide (80 pmole of peptide per 400 μg of bead) were mixed in batch with or without 1 mg/ml K-casein added as described in Results and Discussion, incubated for one hour with rotation, washed three times with buffer and aliquotted into wells. ^3 H-JAK2 or ^3 H-NJAK2 and any other components to be tested were added and the reactions were mixed and incubated for one hour in the dark at room temperature. The plates were then read on a MicroBeta (Wallac) set to read scintillation due to tritium.
The ability of excess peptide 4 [SEQ ID NO: 14] to compete for binding of JAK2 was tested. Biotinylated peptide 4 was bound to streptavidin in solution to mimic the conditions of the peptide 4 bound to the beads. It was used at a ratio of 1:1 (peptide 4: streptavidin) and at a ratio of 4:1 to see whether having multiple peptides on one streptavidin molecule might do a better job of binding JAK2 and therefore of competing. […] This could be due to the free streptavidin pulling some of the peptide 4 [SEQ ID NO: 14] off the bead. […] Another SPA was done using peptide 4 [SEQ ID NO:14] or peptide 1 [SEQ ID NO:11] bound to streptavidin at a ratio of 4:1. […] The results are shown in panel B of FIG. 20.

NJAK2 (N-terminal portion of JAK2), sequence (O60674 1-294 S277G): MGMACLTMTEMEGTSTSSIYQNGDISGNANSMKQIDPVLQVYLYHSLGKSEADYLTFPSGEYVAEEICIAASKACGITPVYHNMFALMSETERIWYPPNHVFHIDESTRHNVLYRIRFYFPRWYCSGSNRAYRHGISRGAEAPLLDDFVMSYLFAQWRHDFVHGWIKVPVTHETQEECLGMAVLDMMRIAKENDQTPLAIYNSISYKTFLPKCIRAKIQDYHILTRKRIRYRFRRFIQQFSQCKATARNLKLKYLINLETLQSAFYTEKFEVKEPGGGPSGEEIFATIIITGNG
T1 sequence (O60674 3-1132): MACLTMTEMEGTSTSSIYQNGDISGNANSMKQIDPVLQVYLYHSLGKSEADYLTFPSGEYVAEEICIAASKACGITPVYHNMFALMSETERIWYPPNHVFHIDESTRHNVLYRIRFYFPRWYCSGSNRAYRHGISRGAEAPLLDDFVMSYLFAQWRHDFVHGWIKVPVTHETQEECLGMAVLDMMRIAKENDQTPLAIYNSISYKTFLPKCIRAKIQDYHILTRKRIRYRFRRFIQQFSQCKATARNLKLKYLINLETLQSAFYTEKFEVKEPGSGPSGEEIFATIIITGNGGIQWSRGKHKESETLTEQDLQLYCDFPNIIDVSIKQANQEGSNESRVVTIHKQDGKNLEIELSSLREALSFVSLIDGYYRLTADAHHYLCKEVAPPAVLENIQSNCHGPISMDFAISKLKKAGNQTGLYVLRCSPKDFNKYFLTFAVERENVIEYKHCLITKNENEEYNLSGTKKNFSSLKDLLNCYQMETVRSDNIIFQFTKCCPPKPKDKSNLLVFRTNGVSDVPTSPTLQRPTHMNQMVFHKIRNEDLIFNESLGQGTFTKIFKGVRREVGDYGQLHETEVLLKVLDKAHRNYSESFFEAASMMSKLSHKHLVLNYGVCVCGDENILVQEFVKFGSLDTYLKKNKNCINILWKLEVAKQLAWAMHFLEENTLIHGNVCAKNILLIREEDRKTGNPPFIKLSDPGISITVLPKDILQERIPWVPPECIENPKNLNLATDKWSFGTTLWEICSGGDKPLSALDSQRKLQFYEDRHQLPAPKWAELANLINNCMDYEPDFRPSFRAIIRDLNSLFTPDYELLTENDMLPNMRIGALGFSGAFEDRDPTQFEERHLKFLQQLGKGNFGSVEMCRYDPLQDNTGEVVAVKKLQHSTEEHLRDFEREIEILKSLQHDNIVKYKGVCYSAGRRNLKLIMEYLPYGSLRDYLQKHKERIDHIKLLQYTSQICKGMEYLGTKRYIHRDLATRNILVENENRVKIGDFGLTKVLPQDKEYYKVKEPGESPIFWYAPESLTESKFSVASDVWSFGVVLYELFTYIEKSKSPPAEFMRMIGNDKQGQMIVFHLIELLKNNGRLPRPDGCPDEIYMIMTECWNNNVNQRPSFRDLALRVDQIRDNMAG

Compound: LALRFCGIYGYRLRRKWEEKIPNPSKSHLFQNGSAELWP [peptide 6, βc peptide]
activity profile in binding 3H-NJAK2 (signal) [1]: peptide 4>peptide 3>peptide 5>peptide 6>peptides 1 and 2
saturation of JAK2 binding at 0.4 μM peptide (ELISA) (JAK2 [2]): did not show saturation
activity profile in binding 3H-JAK2 (signal) (JAK2 [3]): peptide 4>peptide 3>peptide 5>peptide 6>peptides 1 and 2
overall signals and signal-to-noise ratios, peptide and labeled JAK2 mixed prior to adding beads (JAK2 [3]): lower overall signals and signal-to-noise ratios
activity profile, peptide and labeled JAK2 mixed prior to adding beads (JAK2 [3]): same activity profile
signal (JAK2 [3]): very little signal

Compound: GIYGYRLRRKWEE [CTD-5, C-terminal deletion of peptide 4]
activity of C-terminal deletion peptide in the SPA (JAK2 [3]; 10 nM labeled JAK2, FIG. 21B): as active as peptide 4

Compound: bovine serum albumin [BSA]
effect on background (βc/JAK2 binding; BSA 0.1 or 0.5 mg/ml, FIG. 16): no effect
effect on signal (βc/JAK2 binding; BSA 0.1 or 0.5 mg/ml, FIG. 16): slight positive effect

Compound: FCGIYGYRLRRKWEEKIPNPSKSHLFQNGSAELWP [peptide 5, βc peptide, N-terminal truncation]
activity profile in binding 3H-NJAK2 (signal) [1]: peptide 4>peptide 3>peptide 5>peptide 6>peptides 1 and 2
saturation of JAK2 binding at 0.4 μM peptide (ELISA) (JAK2 [2]): did not show saturation
activity profile in binding 3H-JAK2 (signal) (JAK2 [3]): peptide 4>peptide 3>peptide 5>peptide 6>peptides 1 and 2

Compound: streptavidin [reference compound]
signal with streptavidin alone (JAK2 [4]; 20 μM streptavidin, FIG. 20A): decreases the signal to a greater extent than streptavidin with peptide 4

Compound: GIYGYRLRRKWEEKIPN [CTD-4, C-terminal deletion of peptide 4]
activity of C-terminal deletion peptide in the SPA (JAK2 [3]; 32.5 nM labeled JAK2, FIG. 21A): slight decrease in the activity

Compound: EKIPNPSKSHLFQNGSAELWP [peptide 1, βc peptide, N-terminal truncation]
activity profile in binding 3H-NJAK2 (signal) [1]: gave no signal
binding of JAK2 (ELISA) (JAK2 [2]): no binding activity
activity profile in binding 3H-JAK2 (signal) (JAK2 [3]): gave no signal
overall signals and signal-to-noise ratios, peptide and labeled JAK2 mixed prior to adding beads (JAK2 [3]): lower overall signals and signal-to-noise ratios
activity profile, peptide and labeled JAK2 mixed prior to adding beads (JAK2 [3]): same activity profile
signal (JAK2 [3]): very little signal
competition for binding of JAK2 (JAK2 [4]; peptide/streptavidin 4:1, beads with 1 mg/ml κ-casein, FIG. 20B): decrease in signal

Now from value to compound, other results behind:

activity profile in binding 3H-NJAK2 (signal) [1]: gave no signal
binding of JAK2 (ELISA) (JAK2 [2]): no binding activity
activity profile in binding 3H-JAK2 (signal) (JAK2 [3]): gave no signal
Compound: RKWEEKIPNPSKSHLFQNGSAELWP [peptide 2, βc peptide, N-terminal truncation]

suitability for the ELISA (JAK2 [2]): appear optimal
suitability in the SPA (JAK2 [3]): two most optimal
Compound: YRLRRKWEEKIPNPSKSHLFQNGSAELWP [peptide 3, βc peptide, N-terminal truncation]
activity profile in binding 3H-NJAK2 (signal) [1]: peptide 4>peptide 3>peptide 5>peptide 6>peptides 1 and 2
activity profile in binding 3H-JAK2 (signal) (JAK2 [3]): peptide 4>peptide 3>peptide 5>peptide 6>peptides 1 and 2

effect on signal and background (βc/JAK2 binding; κ-casein during binding of excess peptide to beads, washed away, FIG. 15): decreases both signal and background
Compound: κ-casein

additional effect of dithiothreitol (βc/JAK2 binding; 0.1 or 1 mM DTT with Brij 35 0.0025%, FIG. 19B): no obvious additional effect
Compound: O[C@H](CS)[C@H](O)CS (racemic) [dithiothreitol]
